Data on 78 variants can be found in the RNAGym collection of RNA variant scans (doi:10.7554/elife.80360).

Sequences and labels used below:
B1: CPEB3 Ribozyme (parent)
chain: GGGGGCCACAGCAGAAGCGUUCACGUCGCGGCCCCUGUCAGAUUCUGGUGAAUCUGCGAAUUCUGCUGU

In the series the parent is B1. Nature of the series: self-cleavage, relative activity (ratio to wild type); higher = more cleavage; co-transcriptional.
Consider GCGGGCCACAGCAGAAGCGUUCAAGUCGCGGCCCCUGUCAGAUUCUGGUGAAUCUGCGAAUUCUGCUGU, for which the self-cleavage worked out at 0.0707.
With GCGGGCCACAGCAGAAGCGUUCAGGUCGCGGCCCCUGUCAGAUUCUGGUGAAUCUGCGAAUUCUGCUGU, the self-cleavage was 0.0232.
For the variant GCCGGCCACAGCAGAAGCGUUCACGUCGCGGCCCCUGUCAGAUUCUGGUGAAUCUGCGAAUUCUGCUGU, the self-cleavage came to 0.0247.
With GCAGGCCACAGCAGAAGCGUUCACGUCGCGGCCCCUGUCAGAUUCUGGUGAAUCUGCGAAUUCUGCUGU the figure was 0.055; with GCGGGCCACAGCAGAAGCGUUCACGUCGCGGCCCGUGUCAGAUUCUGGUGAAUCUGCGAAUUCUGCUGU, 0.313; with GCGGGCCACAGCAGAAGCGUUCACGUCGCGGCCCAUGUCAGAUUCUGGUGAAUCUGCGAAUUCUGCUGU, 0.0223.
Under GCGGGCUACAGCAGAAGCGUUCACGUCGCGGCCCCUGUCAGAUUCUGGUGAAUCUGCGAAUUCUGCUGU stands 0.0258; under GCGGGCAACAGCAGAAGCGUUCACGUCGCGGCCCCUGUCAGAUUCUGGUGAAUCUGCGAAUUCUGCUGU, 0.0323.
Under GCGGGCCACAGCAGAAGCGUUCACGUCGCGGCCCCUGUCAGGUUCUGGUGAAUCUGCGAAUUCUGCUGU stands 0.0702; under GCGGGCCACAGCAGAAGCGUUCACGUCGCGGCUCCUGUCAGAUUCUGGUGAAUCUGCGAAUUCUGCUGU, 0.0465.
Consider GCGGGCCACAGCAGAAGCGUUCACGUCGCGGCGCCUGUCAGAUUCUGGUGAAUCUGCGAAUUCUGCUGU, for which the self-cleavage was 0.0592.
Under GCGGGCCACAGCAGAAGCGUUCACGUCGCGGCACCUGUCAGAUUCUGGUGAAUCUGCGAAUUCUGCUGU stands 0.0155.
With GCGGGCCACAGCAGAAGCGUUCACGUCGCGGCCCCUGUCAGAUUCUGGUGGAUCUGCGAAUUCUGCUGU the figure was 0.0786; with GCGGGCCACAGCAGAAGCGUUCACGUCGCGGCCCCUGUCAGAUUCUGGUGCAUCUGCGAAUUCUGCUGU, 0.0374.
With GCGGGCCACAGCAGAAGCGUUCACGUCGCGGCCCCUGUCAGAUUCUGGUGAAUCUGCGACUUCUGCUGU the figure was 0.0369; with GCGGGCCACAGCAGAAGCGUUCACGUCGCGGCCCCUGUCAGAUUCUGGUGAAUCUGCGAUUUCUGCUGU, 0.0243; with GCGGGCCACAGCAGAAGCGUUCACGUCGCGGCCCCUGUCAGAUUCUGGUGAAUCUGCGAGUUCUGCUGU, 0.0533.
GCGGGCCACAGCACAAGCGUUCACGUCGCGGCCCCUGUCAGAUUCUGGUGAAUCUGCGAAUUCUGCUGU: the self-cleavage was found to be 0.0627.
With GCGGGCCACAGCAAAAGCGUUCACGUCGCGGCCCCUGUCAGAUUCUGGUGAAUCUGCGAAUUCUGCUGU the figure was 0.0455; with GCGGGCCACAGCAGAAGCGUUCACGUCGCGGCCCCUGUCUGAUUCUGGUGAAUCUGCGAAUUCUGCUGU, 0.0469.
With GCGGGCCACAGCAGAAGCGUUCACGUCGCGGCCCCUGUCCGAUUCUGGUGAAUCUGCGAAUUCUGCUGU, the self-cleavage stood at 0.0316.
Under GCGGGCCACAGCAGAAGCGUUCACGUCGCGGCCCCUGUCGGAUUCUGGUGAAUCUGCGAAUUCUGCUGU stands 0.0911; under GCGGGCCACAGCAGAAGCGUUCACGUCGUGGCCCCUGUCAGAUUCUGGUGAAUCUGCGAAUUCUGCUGU, 0.0639.
Under GCGGGCCACAGCAGAAGCGUUCACGUCGGGGCCCCUGUCAGAUUCUGGUGAAUCUGCGAAUUCUGCUGU stands 0.0119; under GCGGGCCACAGCAGAAGCGUUCACGUCGCGGCCCCUGUCAGAUUCUGGUGACUCUGCGAAUUCUGCUGU, 0.0825.
With GCGGGCCACAGCAGAAGCGUUCACGUCGCGGCCCCUGUCAGAUUCUGGUGAAUCUGCGAAUUGUGCUGU, the self-cleavage was determined as 0.0678.
Under GCGCGCCACAGCAGAAGCGUUCACGUCGCGGCCCCUGUCAGAUUCUGGUGAAUCUGCGAAUUCUGCUGU stands 0.0427; under GCGUGCCACAGCAGAAGCGUUCACGUCGCGGCCCCUGUCAGAUUCUGGUGAAUCUGCGAAUUCUGCUGU, 0.0417; under GCGAGCCACAGCAGAAGCGUUCACGUCGCGGCCCCUGUCAGAUUCUGGUGAAUCUGCGAAUUCUGCUGU, 0.0684.
Under GCGGGCCACAGCAGAAGCGUUCACGUCGCGGCCCCUGUCAGAUUCUGGUGAAUAUGCGAAUUCUGCUGU stands 0.0299; under GCGGGCCACAGCAGAAGCGUUCACGUCGCGGCCCCUGUCAGAUUCUGGUGAAUUUGCGAAUUCUGCUGU, 0.0485; under GCGGGCCACAGCAGAAGCGUUCACGUCGCGGCCCCUGUUAGAUUCUGGUGAAUCUGCGAAUUCUGCUGU, 0.0154.
With GCGGGACACAGCAGAAGCGUUCACGUCGCGGCCCCUGUCAGAUUCUGGUGAAUCUGCGAAUUCUGCUGU the figure was 0.0465; with GCGGGGCACAGCAGAAGCGUUCACGUCGCGGCCCCUGUCAGAUUCUGGUGAAUCUGCGAAUUCUGCUGU, 0.
As for GCGGGUCACAGCAGAAGCGUUCACGUCGCGGCCCCUGUCAGAUUCUGGUGAAUCUGCGAAUUCUGCUGU, the self-cleavage amounted to 0.0751.
With GCGGGCCAGAGCAGAAGCGUUCACGUCGCGGCCCCUGUCAGAUUCUGGUGAAUCUGCGAAUUCUGCUGU the figure was 0.123.
For GCGGGCCAAAGCAGAAGCGUUCACGUCGCGGCCCCUGUCAGAUUCUGGUGAAUCUGCGAAUUCUGCUGU, the self-cleavage is 0.0938.
In the case of GCGGGCCACAGCAGAAGCGUUUACGUCGCGGCCCCUGUCAGAUUCUGGUGAAUCUGCGAAUUCUGCUGU, the self-cleavage was determined as 0.0697.
Under GCGGGCCACAGCAGAAGCGUUAACGUCGCGGCCCCUGUCAGAUUCUGGUGAAUCUGCGAAUUCUGCUGU stands 0.0368; under GCGGGCCACAGCAGAAGCGUUCACGUCGCGGCCACUGUCAGAUUCUGGUGAAUCUGCGAAUUCUGCUGU, 0.0678.
Under GCGGGCCACAGCAGAAGCGUUCACGUCGCGGCCUCUGUCAGAUUCUGGUGAAUCUGCGAAUUCUGCUGU stands 0.0646.
Under GCGGGCCACAGCAGAAGCGUUCACGUCGCGGCCCCUGUCAGAUUCUGGUGAAUCUGUGAAUUCUGCUGU stands 0.054; under GCGGGCCACAGCAGAAGCGUUCACGUCGCGGCCCCUGUCAGAUUCUGGUGAAUCUGAGAAUUCUGCUGU, 0.036; under GCGGGCCACAGCAGAAGCGUUCACGUCGCGGCCCCUGUCAGAUUCUGGUGAAUCUGGGAAUUCUGCUGU, 0.0289.
In the case of GCGGGCCACAACAGAAGCGUUCACGUCGCGGCCCCUGUCAGAUUCUGGUGAAUCUGCGAAUUCUGCUGU, the self-cleavage was determined as 0.0352.
Under GCGGGCCACACCAGAAGCGUUCACGUCGCGGCCCCUGUCAGAUUCUGGUGAAUCUGCGAAUUCUGCUGU stands 0.0455.
With GCGGGCCACAUCAGAAGCGUUCACGUCGCGGCCCCUGUCAGAUUCUGGUGAAUCUGCGAAUUCUGCUGU the figure was 0.0219; with GCGGGCCACAGCAGAAGCGUUCCCGUCGCGGCCCCUGUCAGAUUCUGGUGAAUCUGCGAAUUCUGCUGU, 0.0568; with GCGGACCACAGCAGAAGCGUUCACGUCGCGGCCCCUGUCAGAUUCUGGUGAAUCUGCGAAUUCUGCUGU, 0.0455.
Consider GCGGGCCACAGCAGAAACGUUCACGUCGCGGCCCCUGUCAGAUUCUGGUGAAUCUGCGAAUUCUGCUGU, for which the self-cleavage is 0.0551.
Under GCGGGCCACAGCAGAACCGUUCACGUCGCGGCCCCUGUCAGAUUCUGGUGAAUCUGCGAAUUCUGCUGU stands 0.0475; under GCGGGCCACAGCAGAAGCGUUCACGUCGCGGACCCUGUCAGAUUCUGGUGAAUCUGCGAAUUCUGCUGU, 0.00762.
With GCGGGCCACAGCAGAAGCGUUCACGUCGCGGUCCCUGUCAGAUUCUGGUGAAUCUGCGAAUUCUGCUGU the figure was 0.0415; with GCGGGCCACAGCAGAAGCGUUCACGUCGCGGGCCCUGUCAGAUUCUGGUGAAUCUGCGAAUUCUGCUGU, 0.0507.
Under GCGGGCCACAGCGGAAGCGUUCACGUCGCGGCCCCUGUCAGAUUCUGGUGAAUCUGCGAAUUCUGCUGU stands 0.084.
GCGGGCCACAGCUGAAGCGUUCACGUCGCGGCCCCUGUCAGAUUCUGGUGAAUCUGCGAAUUCUGCUGU: the self-cleavage worked out at 0.0221.
Under GCGGGCCACAGCAGAAGCGUUCACGUCGCGGCCCCUGUCAGAUUCUGGUGAAUCUGCGCAUUCUGCUGU stands 0.027; under GCGGGCCACAGCAGAAGCGUUCACGUCGCGGCCCCUGUCAGAUUCUGGUGAAUCUGCGUAUUCUGCUGU, 0.0322; under GCGGGCCACAGCAGAUGCGUUCACGUCGCGGCCCCUGUCAGAUUCUGGUGAAUCUGCGAAUUCUGCUGU, 0.0422.
With GCGGGCCACAGCAGAGGCGUUCACGUCGCGGCCCCUGUCAGAUUCUGGUGAAUCUGCGAAUUCUGCUGU the figure was 0.0604; with GCGGGCCACAGCAGACGCGUUCACGUCGCGGCCCCUGUCAGAUUCUGGUGAAUCUGCGAAUUCUGCUGU, 0.0354; with GCGGGCCACAGCAGCAGCGUUCACGUCGCGGCCCCUGUCAGAUUCUGGUGAAUCUGCGAAUUCUGCUGU, 0.0125.
With GCGGGCCACAGCAGUAGCGUUCACGUCGCGGCCCCUGUCAGAUUCUGGUGAAUCUGCGAAUUCUGCUGU the figure was 0.0423; with GCGGGCCACAGCAGGAGCGUUCACGUCGCGGCCCCUGUCAGAUUCUGGUGAAUCUGCGAAUUCUGCUGU, 0.0305; with GCGGGCCACAGCAGAAGCGUUCACGUCGCGGCCCCUGUCAGAUUGUGGUGAAUCUGCGAAUUCUGCUGU, 0.0374.
In the case of GCGGGCCACAGCAGAAGCGUUCACGUCGCGGCCCCUGUCAGAUUAUGGUGAAUCUGCGAAUUCUGCUGU, the self-cleavage worked out at 0.0472.
With GCGGGCCACAGCAGAAGCGUUCACGUCGCGGCCCCUGUCAGAUUUUGGUGAAUCUGCGAAUUCUGCUGU the figure was 0.0464; with GCGGGCCACGGCAGAAGCGUUCACGUCGCGGCCCCUGUCAGAUUCUGGUGAAUCUGCGAAUUCUGCUGU, 0.0728.
With GCGGGCCACUGCAGAAGCGUUCACGUCGCGGCCCCUGUCAGAUUCUGGUGAAUCUGCGAAUUCUGCUGU the figure was 0.0719.
With GCGGGCCACCGCAGAAGCGUUCACGUCGCGGCCCCUGUCAGAUUCUGGUGAAUCUGCGAAUUCUGCUGU the figure was 0.0373; with GCGGGCCACAGCAGAAGAGUUCACGUCGCGGCCCCUGUCAGAUUCUGGUGAAUCUGCGAAUUCUGCUGU, 0.0265.
With GCGGGCCACAGCAGAAGUGUUCACGUCGCGGCCCCUGUCAGAUUCUGGUGAAUCUGCGAAUUCUGCUGU, the self-cleavage was 0.0354.
Under GCGGGCCACAGCAGAAGCGUUCACGUCGCGGCCCCUGUCAGAUUCUGGUGAAUCUGCGAAUUCUGUUGU stands 0.0685.
Under GCGGGCCACAGCAGAAGCGUUCACGUCGCGGCCCCUGUCAGAUUCUGGUGAAUCUGCGAAUUCUGAUGU stands 0.052; under GCGGGCCACAGCAGAAGCGUUCACGUAGCGGCCCCUGUCAGAUUCUGGUGAAUCUGCGAAUUCUGCUGU, 0.0594.
With GCGGGCCACAGCAGAAGCGUUCACGUGGCGGCCCCUGUCAGAUUCUGGUGAAUCUGCGAAUUCUGCUGU the figure was 0.106; with GCGGGCCACAGGAGAAGCGUUCACGUCGCGGCCCCUGUCAGAUUCUGGUGAAUCUGCGAAUUCUGCUGU, 0.0599.
Regarding GCGGGCCACAGUAGAAGCGUUCACGUCGCGGCCCCUGUCAGAUUCUGGUGAAUCUGCGAAUUCUGCUGU, the self-cleavage stood at 0.065.
